Assay results taken from article PMC9054685 (RSC Advances, 2020).

Assay: Particle size by dynamic light scattering
Format: physicochemical
Conditions: Zetasizer Nano ZS, 25 °C

dendritic polylysine-1,4,7-triazacyclononane-1,4,7-triacetic acid conjugate [NOTA-DGL]
diameter (particle size, DLS): 35.02 ± 1.53 nm
